Where two headings read alike, the source gives them in different places.
Tests used:
Experiment in all cases: FRET or BRET
FRET or BRET [1] = molecular target: the molecule itself
FRET or BRET [2] = molecular target: the molecule itself; remark: listed apart in the source
FRET or BRET [3] = molecular target: the molecule itself; remark: listed apart in the source

B1: CYP2E1 labeled with BODIPY-618 maleimide (enzyme, human, UniProt P05181 1-493, looked up)
chain: MSSMWRQVHSSWNLPPGPFPLPIIGNLFQLELKNIPKSFTRLAQRFGPVFTLYVGSQRMVVMHGYKAVKEALLDYKDEFSGRGDLPAFHAHRDRGIIFNNGPTWKDIRRFSLTTLRNYGMGKQGNESRIQREAHFLLEALRKTQGQPFDPTFLIGCAPCNVIADILFRKHFDYNDEKFLRLMYLFNENFHLLSTPWLQLYNNFPSFLHYLPGSHRKVIKNVAEVKEYVSERVKEHHQSLDPNCPRDLTDCLLVEMEKEKHSAERLYTMDGITVTVADLFFAGTETTSTTLRYGLLILMKYPEIEEKLHEEIDRVIGPSRIPAIKDRQEMPYMDAVVHEIQRFITLVPSNLPHEATRDTIFRGYLIPKGTVVVPTLDSVLYDNQEFPDPEKFKPEHFLNENGKFKYSDYFKPFSTGKRVCAGEGLARMELFLLLCAILQHFNLKPLVDPKDIDLSPIHIGFGCIPPRYKLCVIPRS
modifications: BODIPY-618 maleimide label, 2:1 label to protein ratio (labelled residues not stated)
(Lipid/CYP2E1)50% (FRET or BRET [1]): 604 molar ratio | (Lipid/CYP2E1)50% (FRET or BRET [2]): 14400 molar ratio | (Lipid/CYP2E1)50% (FRET or BRET [3]): 176 molar ratio
